B1: Tyrosine-protein phosphatase non-receptor type 18 (Homo sapiens), Q99952-1 (parent)
chain: MSRSLDSARSFLERLEARGGREGAVLAGEFSDIQACSAAWKADGVCSTVAGSRPENVRKNRYKDVLPYDQTRVILSLLQEEGHSDYINGNFIRGVDGSLAYIATQGPLPHTLLDFWRLVWEFGVKVILMACREIENGRKRCERYWAQEQEPLQTGLFCITLIKEKWLNEDIMLRTLKVTFQKESRSVYQLQYMSWPDRGVPSSPDHMLAMVEEARRLQGSGPEPLCVHCSAGCGRTGVLCTVDYVRQLLLTQMIPPDFSLFDVVLKMRKQRPAAVQTEEQYRFLYHTVAQMFCSTLQNASPHYQNIKENCAPLYDDALFLRTPQALLAIPRPPGGVLRSISVPGSPGHAMADTYAVVQKRGAPAGAGSGTQTGTGTGTGARSAEEAPLYSKVTPRAQRPGAHAEDARGTLPGRVPADQSPAGSGAYEDVAGGAQTGGLGFNLRIGRPKGPRDPPAEWTRV

Variants of: B1
Details: with fbw1a_human BTRC

Row | effect of a mutation on the interaction | Variant
1 | decreasing interaction strength | S419A
2 | disrupting interaction strength | S423A
